Laboratory results published in patent publication US20230181528A1, “COMPOSITIONS AND METHODS FOR TREATING NEOPLASIA” (The Broad Institute, Inc., priority 2020, published 2023).

Tests used:
VPS4B^neutral cell lines = experiment: CRISPR-based cell viability assay with CellTiter-Glo (sgRNAs targeting VPS4A); parameters: species or system human; settings: YAPC; seven-day CellTiter-Glo; scale 0 (cutting controls) to −1 (pan-essential sgRNAs); read from FIG. 2A
Method: For FIG. 2A, CellTiter-Glo viability assays were performed with stably expressing SpCas9 cell lines in 96 well plates. Cells were seeded and infected with sgRNA expressing lentivirus in wells on day 0, and selected with puromycin 24 hours later. Cell titer-Glo viability was read out 7 days after plating and infection. Prior to CellTiter-Glo viability assays, all cell lines were individually optimized for the assay including titrating both cell seeding density and volume of virus used for infection. All lentiviral preps for each sgRNA described below were batch controlled and titrated on three different cell lines representing cell lines with low, medium and high transduction efficiency. Optimal cell seeding densities and viral volumes for infections were then used for all subsequent viability assays using CRISPR. […]
Each assay was required to meet specific quality control metrics. […] For quality control of raw luminescence from CellTiter-Glo, infection efficiency (puro/no puro selection for each sgRNA) was required to be at least 80%, and all replicate wells had to be within 2 standard deviations of the mean for that sgRNA infection. […] SpCas9 activity from each cell line was also required to be greater than 50%, determined by the percent viability reduction of the average of the 3 pan-essential genes (sgPOLR2D, sgSF3B1 and sgKIF11) to negative controls (sgLacZ, sgChr2 and sgAAVS1). […]

VPS4 ATPase activity = experiment: In vitro assay of ATPase activity of recombinant VPS4A and VPS4B constructs; format: biochemical; settings: for fold change in turnover number between VPS4A and VPS4B construct with the same tag: VPS4B construct vs VPS4A construct; for Turnover (preliminary turnover number): recombinant tagged constructs, ATPase activity
Text: Active oligomers of VPS4A and VPS4B were achieved through recombinant production and an in vitro assay was used to measure ATPas activity. […] Hcp1 (also known as His6 tag (SEQ ID NO: 32)) and FL (also known as FLAG tag) were used.

[1] = tested on: PANC0403 pancreatic cancer cell line (VPS4B^loss); experiment: Interferon dose-response curves with VPS4A suppression (CellTiter-Glo); format: cell-based, human; settings: PANC0403 shVPS4A-2, co-treatment with 1 μM doxycycline, interferon titration for last 3 days
Method: (§1) To determine whether interferon treatment cooperate with VPS4A suppression, pancreatic cancer cell lines (KP4, PANC0403 and SNU213) stably expressing the doxycycline-inducible RNAi system against VPS4A (shVPS4A-2) were plated in white-walled 96-well plates at 100˜400 cells per well in 100 μL of 10% FBS-supplemented RPMI-1640 with L-glutamine with or without 1 μM doxycycline. Plates were incubated at 37° C., 5% CO2 for 3 days. […] At the same time, the doxycycline was refreshed. Cells were then incubated for an additional 3 days at 37° C., 5% CO2. Afterwards, 100 μL of premixed CellTiter-Glo (Promega) reagent was added to the wells to lyse cells by shaking the plates at 500 RPM for 10 minutes at room temperature. Luminescence for each well was then measured using an Envision plate reader (Perkin Elmer) to measure cell viability using the ATP-based readout. Luminescence signal for each well was normalized to the average signal from 6 wells treated without interferon for each cell line. These normalized values were then visualized using GraphPad Prism 8.3.0 fitted with a four-parameter log-based non-linear dose-response curve.

[2] = tested on: SNU213 pancreatic cancer cell line (VPS4B^loss); experiment: as above; format: cell-based, human; settings: SNU213 shVPS4A-2, co-treatment with 1 μM doxycycline, interferon titration for last 3 days
Method: as §1

sgVPS4A3: sgRNA targeting VPS4A intron/exon junction, 5′-ATTGTTATTCCCCACCCCTG (SEQ ID NO: 41) (listed as DNA, chemistry not given here)
VPS4A dependency score (normalized viability effect) (VPS4B^neutral cell lines): 0.25-0.35

sgVPS4A2: sgRNA targeting VPS4A intron/exon junction, 5′-GGGCCGCACGAAGTACCTGG (SEQ ID NO: 40) (listed as DNA, chemistry not given here)
VPS4A dependency score (normalized viability effect) (VPS4B^neutral cell lines): 0.3-0.4

VPS4B-FL: recombinant VPS4B construct with FL (FLAG) tag
fold change in turnover number between VPS4A and VPS4B construct with the same tag (VPS4 ATPase activity): > 1 fold
Turnover (preliminary turnover number) (VPS4 ATPase activity): 21 s⁻¹

VPS4B-Hcp1: recombinant VPS4B construct with Hcp1 tag
fold change in turnover number between VPS4A and VPS4B construct with the same tag (VPS4 ATPase activity): > 600 fold
Turnover (preliminary turnover number) (VPS4 ATPase activity): 33280 s⁻¹

interferon-γ: purified recombinant human interferon-γ (PeproTech)
sensitization to VPS4A suppression (6-day cell viability) [1]: strongly sensitized
sensitization to VPS4A suppression (6-day cell viability) [2]: strongly sensitized

B1: VPS4A-Hcp1: recombinant VPS4A construct with Hcp1 tag (protein, UniProt Q9UN37 1-437, looked up)
Vacuolar protein …: MTTSTLQKAIDLVTKATEEDKAKNYEEALRLYQHAVEYFLHAIKYEAHSDKAKESIRAKCVQYLDRAEKLKDYLRSKEKHGKKPVKENQSEGKGSDSDSEGDNPEKKKLQEQLMGAVVMEKPNIRWNDVAGLEGAKEALKEAVILPIKFPHLFTGKRTPWRGILLFGPPGTGKSYLAKAVATEANNSTFFSVSSSDLMSKWLGESEKLVKNLFELARQHKPSIIFIDEVDSLCGSRNENESEAARRIKTEFLVQMQGVGNNNDGTLVLGATNIPWVLDSAIRRRFEKRIYIPLPEEAARAQMFRLHLGSTPHNLTDANIHELARKTEGYSGADISIIVRDSLMQPVRKVQSATHFKKVCGPSRTNPSMMIDDLLTPCSPGDPGAMEMTWMDVPGDKLLEPVVCMSDMLRSLATTRPTVNADDLLKVKKFSEDFGQES
modifications: Hcp1 tag
Turnover (preliminary turnover number) (VPS4 ATPase activity): 53 s⁻¹

B2: VPS4A-FL: recombinant VPS4A construct with FL (FLAG) tag (protein, UniProt Q9UN37 1-437, looked up)
Vacuolar protein …: MTTSTLQKAIDLVTKATEEDKAKNYEEALRLYQHAVEYFLHAIKYEAHSDKAKESIRAKCVQYLDRAEKLKDYLRSKEKHGKKPVKENQSEGKGSDSDSEGDNPEKKKLQEQLMGAVVMEKPNIRWNDVAGLEGAKEALKEAVILPIKFPHLFTGKRTPWRGILLFGPPGTGKSYLAKAVATEANNSTFFSVSSSDLMSKWLGESEKLVKNLFELARQHKPSIIFIDEVDSLCGSRNENESEAARRIKTEFLVQMQGVGNNNDGTLVLGATNIPWVLDSAIRRRFEKRIYIPLPEEAARAQMFRLHLGSTPHNLTDANIHELARKTEGYSGADISIIVRDSLMQPVRKVQSATHFKKVCGPSRTNPSMMIDDLLTPCSPGDPGAMEMTWMDVPGDKLLEPVVCMSDMLRSLATTRPTVNADDLLKVKKFSEDFGQES
modifications: FLAG tag
Turnover (preliminary turnover number) (VPS4 ATPase activity): 10 s⁻¹
